Assay results published in patent publication US20240350597A1, “PROTEASE INHIBITORS” (University College Dublin, priority 2023, published 2024).
“Also recorded” adds a separate entry of the source. Read-outs that look alike come from different tables or passages of the source.

Experiments:
[1] = biological target: T1, TMPRSS2 (Homo sapiens, UniProt O15393); assay type: biochemical; parameters: purchased Cusabio Technology
[2] = biological target: T2, Cathepsin L (CatL) (Homo sapiens, UniProt P07711); assay: Protease inhibition assay, fluorogenic substrate cleavage, cathepsin L; assay type: biochemical; conditions: excess of serpin over protease, 2 min incubation, substrate Z-FR-AMC
T2 construct: gift: Dr Matej Vizovišek, Jozef Stefan Institute, Slovenia
T2 sequence (P07711 114-333): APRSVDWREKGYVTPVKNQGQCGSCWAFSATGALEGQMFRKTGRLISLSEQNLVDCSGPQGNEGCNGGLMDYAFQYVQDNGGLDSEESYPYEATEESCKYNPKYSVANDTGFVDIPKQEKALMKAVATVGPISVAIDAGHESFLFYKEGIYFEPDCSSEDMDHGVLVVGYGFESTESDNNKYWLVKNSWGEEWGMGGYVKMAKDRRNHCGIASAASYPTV
Procedure: By monitoring the linear rate of cleavage of fluorogenic substrates, protease specificity of purified proteins was assessed. CatL was gifted by Dr Matej Vizovišek, Jozef Stefan Institute, Slovenia. TMPRSS2 was obtained from Cusabio Technology and furin from BioLegend.
Proteases were incubated with a 1:5 molar excess of serpin and residual activity was determined by cleavage of fluorescent substrates. All assays were carried out at room temperature in 96-well plates in a total volume of 100 μL. Residual proteolytic activity was measured using a SpectraMax M3 Microplate Reader (Molecular Devices, Inc), using the appropriate buffer and synthetic fluorogenic peptide substrate: Cathepsin L, Z-FR-AMC (10 μM), 50 mM Na-Acetate, 100 mM NaCl, 1 mM EDTA, pH 5.5; Chymotrypsin, Z-AAPF-AMC (5 μM), PBS, 1 mg/ml BSA; Elastase, Met-O-Suc-AAPV-AMC (10 μM), 50 mM Tris, 120 mM NaCl, pH 8.0, 1 mg/ml BSA; Furin, Boc-RVRR-AMC (50 μM) 20 mM Tris, 1 mM CaCl2), 0.5% Brij-35, pH 9; TMPRSS2, Boc-QAR-AMC (80 μM), PBS; Trypsin, Z-FR-AMC (10 μM), 50 mM Tris, 0.2 mM DTT, 1 mg/ml BSA. The excitation and emission wavelengths used were 380 nm and 460 nm respectively. All assays were performed in triplicate.

[3] = tested on: Omicron BA.5 SARS-CoV-2; assay type: cell-based
[4] = biological target: T1, TMPRSS2; assay: Kinetic analysis of TMPRSS2 inhibition under pseudo first-order conditions; assay type: biochemical; parameters: purchased Cusabio Technology; conditions: room temperature, TMPRSS2 0.1 μM
Procedure: For kinetic analysis of TMPRSS2 inhibition, second order inhibition rate constants were determined under pseudo first-order conditions using a range of serpin concentrations, and with TMPRSS2 buffer and substrate detailed above. Reactions were performed at room temperature and residual activity was determined at intervals over a 10 min incubation with a molar excess of serpin over protease. Concentration ranges were 0.12 to 0.44 μM for B3-TMP and 1.0 to 4 μM for A1AT. The apparent first order rate constant kobs for each concentration was calculated from the slope of the natural log of residual activity over time (−kobs). These values were plotted against inhibitor concentration and linear regression analysis of this plot gave the second order inhibition rate constant k2, with standard error determined.

[5] = tested on: SARS-CoV-2 Spike pseudoparticles; assay type: cell-based

T1 sequence (O15393 whole entry): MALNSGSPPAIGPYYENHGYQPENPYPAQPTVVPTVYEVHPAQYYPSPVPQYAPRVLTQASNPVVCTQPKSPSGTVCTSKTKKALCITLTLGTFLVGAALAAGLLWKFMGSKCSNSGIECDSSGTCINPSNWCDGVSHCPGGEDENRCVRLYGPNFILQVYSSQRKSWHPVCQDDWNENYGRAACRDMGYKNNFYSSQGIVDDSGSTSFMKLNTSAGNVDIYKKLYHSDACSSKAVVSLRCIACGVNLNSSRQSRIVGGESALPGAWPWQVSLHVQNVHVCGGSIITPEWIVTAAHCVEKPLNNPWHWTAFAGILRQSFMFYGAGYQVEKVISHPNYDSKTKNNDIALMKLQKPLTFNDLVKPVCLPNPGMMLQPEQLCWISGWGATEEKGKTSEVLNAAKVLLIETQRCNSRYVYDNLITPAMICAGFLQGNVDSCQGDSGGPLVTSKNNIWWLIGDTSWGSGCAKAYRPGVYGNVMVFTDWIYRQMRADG

B1: B3-TMP: SerpinB3 variant with RCL residues 350 to 354 (P4 to P1′) replaced by IQFRV to inhibit TMPRSS2; SEQ ID No. 6 (protein)
chain: MNSLSEANTKFMFDLFQQFRKSKENNIFYSPISITSALGMVLLGAKDNTAQQIKKVLHFDQVTENTTGKAATYHVDRSGNVHHQFQKLLTEFNKSTDAYELKIANKLFGEKTYLFLQEYLDAIKKFYQTSVESVDFANAPEESRKKINSWVESQTNEKIKNLIPEGNIGSNTTLVLVNAIYFKGQWEKKFNKEDTKEEKFWPNKNTYKSIQMMRQYTSFHFASLEDVQAKVLEIPYKGKDLSMIVLLPNEIDGLQKLEEKLTAEKLMEWTSLQNMRETRVDLHLPRFKVEESYDLKDTLRTMGMVDIFNGDADLSGMTGSRGLVLSGVLHKAFVEVTEEGAEAAAATAVIQFRVSPTSTNEEFHCNHPFLFFIRQNKTNSILFYGRFSSP
With B1 the “selectivity for TMPRSS2 versus elastase, trypsin, chymotrypsin (in words)” value [1] was “better selectivity for TMPRSS2 than A1AT”, the CatL inhibition [2] was 81% and the “inhibition of SARS-CoV-2 Omicron BA.5 infection (in words)” value [3] was “greater inhibitor for both viral strains than WT-SerpinB3; also recorded: inhibit Omicron BA.5 infection to a greater extent than the B3-WT”. The “second order inhibition rate constant k2 of TMPRSS2 inhibition” value [4] was “(9±1.1)×10^3 M^−1 s^−1”, the “inhibition of pseudoparticle entry (in words)” value ([5]; 6.25 μM to 50 μM, A549-ACE2-TMPRSS2 cells) was “reduce SARS-CoV-2 (D614G) pseudoparticle entry” and the “inhibition of pseudoparticle entry” value ([5]; 12.5 μM, A549-ACE2-TMPRSS2 cells) was 70%. The “inhibition of pseudoparticle entry” value ([5]; 50 µM) was 90%.

B2: B3-WT: Wild type recombinant SerpinB3 (SCCA-1), 44.5 kDa cross-class inhibitor of cysteine proteases including CatL; SEQ ID No. 5 (protein, listed as Homo sapiens)
chain: MNSLSEANTKFMFDLFQQFRKSKENNIFYSPISITSALGMVLLGAKDNTAQQIKKVLHFDQVTENTTGKAATYHVDRSGNVHHQFQKLLTEFNKSTDAYELKIANKLFGEKTYLFLQEYLDAIKKFYQTSVESVDFANAPEESRKKINSWVESQTNEKIKNLIPEGNIGSNTTLVLVNAIYFKGQWEKKFNKEDTKEEKFWPNKNTYKSIQMMRQYTSFHFASLEDVQAKVLEIPYKGKDLSMIVLLPNEIDGLQKLEEKLTAEKLMEWTSLQNMRETRVDLHLPRFKVEESYDLKDTLRTMGMVDIFNGDADLSGMTGSRGLVLSGVLHKAFVEVTEEGAEAAAATAVVGFGSSPTSTNEEFHCNHPFLFFIRQNKTNSILFYGRFSSP
For B2, the CatL inhibition [2] was 95% and the “inhibition of SARS-CoV-2 Omicron BA.5 infection (in words)” value [3] was “reductions in SARS-CoV-2 infection”.
